Assay [1] addresses T1, BCMA on the surface of human myeloma U266 cells (human, UniProt Q02223 1-184).
T1 sequence (looked up): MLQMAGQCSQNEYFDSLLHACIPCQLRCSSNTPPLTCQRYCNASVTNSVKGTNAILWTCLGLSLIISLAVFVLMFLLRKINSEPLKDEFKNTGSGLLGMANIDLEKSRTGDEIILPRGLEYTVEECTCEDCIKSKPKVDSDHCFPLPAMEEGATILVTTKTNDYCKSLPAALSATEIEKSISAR
Description: cell-based or functional assay.

The target in assay [2] is T2, BCMA on CHOS cells stably expressing BCMA (CHOS-BCMA) (UniProt Q02223 1-184).
T2 sequence (looked up): T1 sequence (looked up)
Description: cell-based or functional assay.

Assay [3] addresses T1, BCMA on the surface of human myeloma …. Description: flow cytometry on U266 cells, PE anti-human IgG detection. The procedure: (§1) With human myeloma U266 cells as well as CHOS cells (CHOS-BCMA) stably expressing BCMA constructed by genetic engineering technology as representative cell models, the binding of BCMA on the cell surface to SG1116 was analyzed by flow cytometry. Cells at the logarithmic growth phase were collected, adjusted to a cell density of 5×10⁶ cells/mL, and precooled on ice. The SG1116 antibody was diluted with pre-cooled normal saline containing 2% FBS to 20 μg/ml. 100 μl of cells were taken and added into an equal volume of the above diluted SG1116 antibody, and reacted in dark at 4° C. for 30 min. At the end of the reaction, they were washed twice with pre-cooled normal saline containing 2% FBS (6000 rpm, 45 s). A secondary antibody PE mouse anti-human IgG (BD Pharmingen) was diluted with pre-cooled normal saline containing 2% FBS at a ratio of 1:5. 100 μl of cells were taken and resuspended, and reacted in dark at 4° C. for 30 min. At the end of the reaction, they were washed twice with pre-cooled normal saline containing 2% FBS (6000 rpm, 45 s). The cells were resuspended with 400 μl of 1% (v/v) paraformaldehyde. The binding ability of the antibody to the antigen on the cell surface was analyzed with a flow cytometer (BD Calibur).

Assay [4] has as its target T2, BCMA on CHOS cells stably expressing …. Nature of the assay: flow cytometry on CHOS-BCMA cells, PE anti-human IgG detection. Here is the method: as §1
Assay [5] concerns the target T3, recombinant BCMA-His (ACRO Biosystems) (UniProt Q02223 1-54).
T3 construct: also called target antigen BCMA; antigen BCMA; not shown: His tag
T3 sequence (looked up): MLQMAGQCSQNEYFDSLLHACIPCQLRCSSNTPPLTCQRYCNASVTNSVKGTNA
Description: ELISA, BCMA-His coated at 1 µg/ml, anti-human IgG HRP detection. Here is the method: ELISA strips were coated with the target antigen BCMA-His at 1 μg/ml, overnight at 4° C. After washing with PBST, 10% of fetal calf serum was added for blocking at 37° C. for 1 hour. Different concentrations of the antibody SG1116 was added to react at 37° C. for 1 hour. After washing with PBST, horseradish peroxidase-labeled goat anti-human IgG secondary antibody (Goat anti human ([…]), thermo Fisher Scientific) was added to react at 37° C. for 30 minutes. The plate was washed with PBST repeatedly for 5 times, and patted on absorbent paper so as to dry the remaining droplets as much as possible. Each well was added with […] TMB (eBioscience), placed in dark at room temperature (20±5° C.) for 1.5 min. Each well was added with 100 μl of 2N H₂SO₄ stop solution to terminate the reaction of the substrate. The OD values at 450 nm were read with a Microplate reader. The binding ability of the antibody to the target antigen BCMA was analyzed.

The target of assay [6] is T4, TROP2 (Sino Biological Inc.) (UniProt P09758 27-274).
T4 construct: Specificity control
T4 sequence (looked up): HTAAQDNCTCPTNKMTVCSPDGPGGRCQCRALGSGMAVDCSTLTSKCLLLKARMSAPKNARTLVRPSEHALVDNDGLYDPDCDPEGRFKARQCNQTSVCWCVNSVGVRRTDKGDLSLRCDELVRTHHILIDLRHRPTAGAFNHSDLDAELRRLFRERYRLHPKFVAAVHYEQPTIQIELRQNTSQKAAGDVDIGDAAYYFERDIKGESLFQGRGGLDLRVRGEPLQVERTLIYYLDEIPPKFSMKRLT
Description: ELISA, proteins coated at 1 ug/ml, HRP goat anti-human IgG, OD450. The procedure: (§2) ELISA strips were coated with milk (Beijing Biomed Biotech Co., Ltd.), BSA (BOVOGEN), CD19 (Sino Biological Inc.), TROP2 (Sino Biological Inc.), BCMA (ACRO Biosystems), CD47 (Sino Biological Inc.), CD38 (Sino Biological Inc.), Gas6 (R&D) and various proteins as well as AXL (ACRO Biosystems), respectively, at 1 μg/ml, overnight at 4° C. After washing with PBST, 10% of fetal calf serum was added for blocking at 37° C. for 1 hour. The antibody SG1116 was added to react at 37° C. for 1 hour. After washing with PBST, horseradish peroxidase-labeled goat anti-human IgG secondary antibody (Goat anti human (HRP), Thermo Fisher Scientific) was added to react at room temperature for 30 minutes. The plate was washed with PBST repeatedly for 5 times, and patted on absorbent paper so as to dry the remaining droplets as much as possible. Each well was added with 100 μl TMB (eBioscience, #85-00-420), placed in dark at room temperature ([…]) for 1.5 min. Each well was added with 100 μl of 2N H₂SO₄ stop solution to terminate the reaction of the substrate. The OD values at 450 nm were read with a Microplate reader. The binding ability of the antibody to protein was analyzed.

The target of assay [7] is T5, AXL (ACRO Biosystems) (UniProt P30530 33-449, limits assumed).
T5 construct: Specificity control
T5 sequence (looked up): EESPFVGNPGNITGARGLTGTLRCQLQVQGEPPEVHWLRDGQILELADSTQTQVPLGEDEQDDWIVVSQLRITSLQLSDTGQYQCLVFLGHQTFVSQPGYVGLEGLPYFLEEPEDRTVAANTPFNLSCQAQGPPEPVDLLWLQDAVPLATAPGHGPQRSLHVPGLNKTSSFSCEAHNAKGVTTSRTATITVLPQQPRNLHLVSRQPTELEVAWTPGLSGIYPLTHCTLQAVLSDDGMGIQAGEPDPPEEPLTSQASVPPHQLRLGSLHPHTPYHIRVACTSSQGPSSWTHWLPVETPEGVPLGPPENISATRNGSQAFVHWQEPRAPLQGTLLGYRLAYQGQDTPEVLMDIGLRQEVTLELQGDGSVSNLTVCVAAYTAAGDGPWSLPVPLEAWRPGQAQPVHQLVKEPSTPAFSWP
Described as above. The procedure: as §2

Assay [8] concerns the target T6, CD47 (Sino Biological Inc.) (UniProt Q08722 19-139).
T6 construct: Specificity control
Described as above. The procedure: as §2

Assay [9] has as its target T7, CD38 (Sino Biological Inc.) (UniProt P28907 43-300).
T7 construct: Specificity control
T7 sequence (looked up): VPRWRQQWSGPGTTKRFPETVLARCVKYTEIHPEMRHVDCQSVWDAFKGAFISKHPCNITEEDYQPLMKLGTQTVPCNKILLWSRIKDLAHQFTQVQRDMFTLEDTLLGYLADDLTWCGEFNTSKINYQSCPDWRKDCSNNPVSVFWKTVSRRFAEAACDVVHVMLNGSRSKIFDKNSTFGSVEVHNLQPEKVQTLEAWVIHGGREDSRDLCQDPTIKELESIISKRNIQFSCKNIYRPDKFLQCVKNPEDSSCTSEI
The description is as above. The procedure:
as §2

For assay [10], the target named is T8, Gas6 (R&D) (UniProt Q14393 49-678, limits assumed).
T8 construct: Specificity control
T8 sequence (looked up): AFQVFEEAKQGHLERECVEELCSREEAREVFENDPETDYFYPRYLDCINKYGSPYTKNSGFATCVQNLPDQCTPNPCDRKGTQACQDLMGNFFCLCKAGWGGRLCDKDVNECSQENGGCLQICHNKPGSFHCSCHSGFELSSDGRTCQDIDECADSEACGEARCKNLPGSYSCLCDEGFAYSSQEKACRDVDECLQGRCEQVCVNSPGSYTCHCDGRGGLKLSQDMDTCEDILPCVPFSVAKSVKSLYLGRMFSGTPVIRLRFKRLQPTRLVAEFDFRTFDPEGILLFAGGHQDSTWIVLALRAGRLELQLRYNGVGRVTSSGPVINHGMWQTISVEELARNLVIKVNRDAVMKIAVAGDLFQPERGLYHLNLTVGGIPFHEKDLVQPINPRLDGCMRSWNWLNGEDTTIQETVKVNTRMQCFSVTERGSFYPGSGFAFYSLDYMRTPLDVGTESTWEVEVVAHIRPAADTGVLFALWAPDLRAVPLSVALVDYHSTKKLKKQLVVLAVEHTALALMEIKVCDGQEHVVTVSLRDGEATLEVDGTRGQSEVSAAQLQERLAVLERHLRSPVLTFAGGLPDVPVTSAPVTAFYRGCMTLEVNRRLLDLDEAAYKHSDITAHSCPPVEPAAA
The description is as above. The procedure: as §2

The target of assay [11] is T9, BSA (BOVOGEN) (UniProt P02769 25-607).
T9 construct: Specificity control
The assay is described as above. Here is the method:
as §2

For assay [12], the target named is T10, CD19 (Sino Biological Inc.) (UniProt P15391 20-291).
T10 construct: Specificity control
T10 sequence (looked up): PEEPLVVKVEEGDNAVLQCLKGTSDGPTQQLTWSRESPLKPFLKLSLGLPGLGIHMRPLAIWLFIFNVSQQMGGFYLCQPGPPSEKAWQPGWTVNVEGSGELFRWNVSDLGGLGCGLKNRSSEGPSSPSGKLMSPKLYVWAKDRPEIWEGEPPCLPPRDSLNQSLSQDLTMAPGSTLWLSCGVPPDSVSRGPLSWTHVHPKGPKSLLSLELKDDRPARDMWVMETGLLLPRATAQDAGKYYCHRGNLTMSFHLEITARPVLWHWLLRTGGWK
Described as above. Here is the method: as §2

Assay [13] deals with T3, recombinant BCMA-His (ACRO Biosystems). Description: SPR (BIACORE), antibody captured by anti-human IgG, BCMA as mobile phase 0.15625-20 nM. The procedure:
The antibody affinity was analyzed with BIACORE biomacromolecular interaction analyzer (GE Co.). Anti-human IgG antibodies (purchased from GE) were coupled on a chip, and utilized to capture the SG1116 antibody, of which the concentration was set as 3 μg/mL, and the sampling time was 120 seconds; with the antigen BCMA as the mobile phase, a gradient of 8 concentrations (0.15625, 0.3125, 0.625, 1.25, 2.5, 5, 10, 20 nM) was used, and the binding time was 120 seconds; the dissociation time was 300 seconds; each antibody was regenerated using 3 M of magnesium chloride (purchased from GE) for a time period of 30 seconds.

T6 sequence (Q08722 19-139 limits assumed): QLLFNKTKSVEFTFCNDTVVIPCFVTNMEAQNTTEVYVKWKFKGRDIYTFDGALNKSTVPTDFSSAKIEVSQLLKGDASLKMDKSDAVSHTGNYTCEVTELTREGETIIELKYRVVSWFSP
T9 sequence (P02769 25-607 limits assumed): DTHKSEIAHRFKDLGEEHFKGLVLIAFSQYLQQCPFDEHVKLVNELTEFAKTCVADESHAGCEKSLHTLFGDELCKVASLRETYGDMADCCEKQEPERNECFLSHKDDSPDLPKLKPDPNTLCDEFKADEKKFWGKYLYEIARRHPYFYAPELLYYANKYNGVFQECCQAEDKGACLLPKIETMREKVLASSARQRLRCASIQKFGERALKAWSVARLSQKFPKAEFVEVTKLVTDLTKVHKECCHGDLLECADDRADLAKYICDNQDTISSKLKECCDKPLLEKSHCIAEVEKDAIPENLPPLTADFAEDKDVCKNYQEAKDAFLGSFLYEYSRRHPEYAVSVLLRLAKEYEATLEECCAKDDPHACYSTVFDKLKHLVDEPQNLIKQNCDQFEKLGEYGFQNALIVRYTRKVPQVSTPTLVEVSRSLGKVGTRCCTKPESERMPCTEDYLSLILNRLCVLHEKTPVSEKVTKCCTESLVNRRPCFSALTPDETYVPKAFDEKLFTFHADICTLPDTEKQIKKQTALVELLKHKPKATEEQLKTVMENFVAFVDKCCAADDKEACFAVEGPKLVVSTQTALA

B1: SG1116 antibody (antibody, human IgG1, V domains shown)
VH: QVQLVQSGPELKKPGETVKISCKASGYTFSRYSMNWVRQAPGKGLEWMGRINTGSGAPIYADDFKGRFTFSVDTSASTAYLVINNLKSEDTASYFCSNDYNYSLDHWGQGTAVTVSS
VL: DIVLTQSPPSLAMSLGKRATISCRASESVTILGSHLIYWYQQKPGQPPTLLIQLASNVQTGVPARFSGSGSRTDFTLTIDPVEEDDVAVYYCLQSRTIPRTFGGGTKLEIK
notes: also called antibody SG1116; SGT116
As to B1, the “internalization efficiency EC50 (flow cytometry, surface MFI at 4°C against 37°C)” value in [1] came out at 0.178 µg/mL; in assay [2], 0.00327 µg/mL. Also, the EC50 in [3] came out at 4.29 µg/mL; in assay [4] it was 0.622 µg/mL; in assay [5], 0.0565 µg/mL. The binding result in [6], in [7], in assay [8], in assay [9], in assay [10] and in assay [11] was “no binding” throughout. Besides, the binding result in assay [12] was “no binding”. For the same molecule, the Kd in assay [13] came out at 1.39 nM. In assay [13], the koff was 0.0171 s⁻¹. For the same molecule, the kon in assay [13] was 1.23e+07 M⁻¹ s⁻¹.

B2: immunoconjugate SG1116-DM1 (antibody, V domains shown)
VH: B1 VH
VL: B1 VL
modifications: maytansine derivative DM1 linked through SMCC; conjugation residues and chain not stated
Take B2: the “IC50 of inhibition of proliferation (CCK-8, 72 hours)” value in assay [1] was 0.347 nM.
